The results in this text go back to patent US20080279855A1, “Dna Replication Modulating Peptides, Nucleic Acids Encoding Them, and Their Use in Pharmaceutical Compositions” (CENTRE NATIONAL DE LA RECHERCHE SCIENTIFIQUE, priority 2004, published 2008).

The subject of this test is DNA synthesis in Xenopus egg extracts. In words: in vitro DNA replication (DNA synthesis inhibition) assay in Xenopus egg extracts, alpha-32P dCTP incorporation. The test is classed as biochemical. The settings on record: for inhibition of DNA synthesis (in words): sperm nuclei 3 ng/μl, 2 hours at room temperature. The procedure: The capacity of a compound to inhibit DNA replication can be measured as described in Example 3, by following the general method given in Blow, J. J. & Laskey, R. A. (1986). Initiation of DNA replication in nuclei and purified DNA by a cell-free extract of Xenopus eggs. Cell 47, 577-87
FIG. 3A represents the activity of HsGeminin deletion mutants. The DNA synthesis inhibition activity of a series of HsGeminin deletion mutant proteins was measured by incubation in Xenopus egg extracts. […] DNA synthesis was measured by incorporation of a radioactive label DNA precursor (dCTP) upon 2 hours incubation at room temperature. Numbers indicate the amino-acids of the HsGeminin protein. LZ=coiled-coil domain.
In order to determine whether a homodimer form of Geminin is functional, the Inventors have tested the ability of this peptide to inhibit DNA synthesis in an in vitro DNA replication assay derived from Xenopus eggs^18.
Briefly, Xenopus egg extracts were prepared as previously described^35. Inhibition assays were carried out in a 20 μl reaction containing 3 ng/μl of sperm nuclei and the indicated amounts of proteins at 1:40 ratio (protein to extract). Replication was measured by incorporation of α^32P dCTP following 2 hours incubation at room temperature.

“Also recorded” adds a separate entry of the source.

Regarding “HsGem-LZ: residues Leu110-Ala145 of human Geminin with an extra N-terminal capping Thr residue, made by Fmoc solid-phase peptide synthesis”, the “inhibition of DNA synthesis (in words)” value was “non-functional”. For the same molecule, where the note is “e.g. 320 nM”, the “interference with DNA synthesis at concentration much higher than wild-type protein” value is “did not interfere with DNA synthesis”.

B1: HsGem(82-160): deletion mutant of human Geminin, residues 82-160, hexahistidine-tagged, expressed in E. coli (protein)
chain: TQESFDLMIKENPSSQYWKEVAEKRRKALYEALKENEKLHKEIEQKDNEIARLKKENKELAEVAEHVQYMAELIERLNG
modifications: hexahistidine tag
notes: deletion mutant of human Geminin, residues 82-160, hexahistidine-tagged, expressed in E. coli
On to B1, for which the “inhibition of DNA synthesis (in words)” value is listed as “inhibited DNA synthesis, although less efficiently compared to the wild-type protein”.

B2: HsGem(76-160): deletion mutant of human Geminin, residues 76-160, hexahistidine-tagged, expressed in E. coli (protein)
chain: KNLGGVTQESFDLMIKENPSSQYWKEVAEKRRKALYEALKENEKLHKEIEQKDNEIARLKKENKELAEVAEHVQYMAELIERLNG
modifications: hexahistidine tag
notes: deletion mutant of human Geminin, residues 76-160, hexahistidine-tagged, expressed in E. coli
Regarding B2, the “inhibition of DNA synthesis (in words)” value is reported as “Full inhibition”.

B3: wild type protein: total amino acid sequence of human Geminin, about 25 kDa negative regulator of genome replication (protein, listed as Homo sapiens)
chain: MNPSMKQKQEEIKENIKNSSVPRRTLKMIQPSASGSLVGRENELSAGLSKRKHRNDHLTSTTSSPGVIVPESSENKNLGGVTQESFDLMIKENPSSQYWKEVAEKRRKALYEALKENEKLHKEIEQKDNEIARLKKENKELAEVAEHVQYMAELIERLNGEPLDNFESLDNQEFDSEEETVEDSLVEDSEIGTCAEGTVSSSTDAKPCI
B3: the “inhibition of DNA synthesis (in words)” value is recorded as “efficiently inhibited DNA synthesis”.

B4: HsGem(82-145): deletion mutant of human Geminin, residues 82-145, hexahistidine-tagged, expressed in E. coli (protein)
chain: TQESFDLMIKENPSSQYWKEVAEKRRKALYEALKENEKLHKEIEQKDNEIARLKKENKELAEVA
B4: the “inhibition of DNA synthesis (in words)” value is “not functional”. In addition, the “inhibition of DNA synthesis (in words)” value (listed as mutant 82-145) is “ineffective in inhibiting DNA synthesis”.

B5: HsGem(80-212): form of HsGeminin (residues 80-212) with the coiled-coil domain plus the entire carboxy-terminal part (protein)
chain: GVTQESFDLMIKENPSSQYWKEVAEKRRKALYEALKENEKLHKEIEQKDNEIARLKKENKELAEVAEHVQYMAELIERLNGEPLDNFESLDNQEFDSEEETVEDSLVEDSEIGTCAEGTVSSSTDAKPCI
Turning to B5, the “inhibition of DNA synthesis (in words)” value is listed as “keep the ability of Geminin to inhibit DNA synthesis; also recorded: Full inhibition”. Moreover, the “inhibition of DNA synthesis (in words)” value (listed as HsGeminin (residues 80-212)) was “effective in inhibiting DNA synthesis”.
